From patent US20220387557A1 (OXFORD UNIVERSITY INNOVATION, published 2022)

How the values were obtained:
[1] = target: T1, Fc tagged human TNFR1 (Sino Biological) (human, UniProt P19438 22-211, limits assumed); test: SPR, Biacore T200 single cycle kinetics, receptor-Fc captured on Protein A chip, TNF 1.67-15 nM
T1 construct: Bought reagent; also called hTNFR1; hTNFR1-Fc; not shown: Fc tag of the bought protein
T1 sequence (looked up): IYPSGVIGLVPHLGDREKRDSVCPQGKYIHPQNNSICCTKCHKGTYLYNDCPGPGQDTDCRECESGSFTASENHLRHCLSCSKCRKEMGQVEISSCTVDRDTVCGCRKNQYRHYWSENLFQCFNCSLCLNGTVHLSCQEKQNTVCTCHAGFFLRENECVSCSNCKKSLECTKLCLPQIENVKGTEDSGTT
Protocol: (§1) Single cycle kinetic analysis was performed using a Biacore T200 (serial no. 1909913) running Biacore T200 Evaluation Software V2.0.1 (Uppsala, Sweden). All experiments were run at 25° C. with HBS-P+ running buffer (pH 7.4) (GE Healthcare, Little Chalfont, UK).
(§2) Due to the limit in the number of available flow cells for analysis (three Fc per analysis, Fc2, Fc3 and Fc4, with Fc1 always being used as blank reference for non-specific subtraction), receptor binding was assessed in two separate overlapping runs using either: hTNFR1 (Fc2), hTNFR2 (Fc3) and mTNFR1 (Fc4), or; hTNFR1 (Fc2), […] and mTNFR2 (Fc4). Receptors were diluted in running buffer to a concentration of ˜4 μg/mL and at the start of each cycle loaded onto Fc2, Fc3 and Fc4 of a Protein A chip (GE Healthcare, Little Chalfont, UK) at a flow rate of 10 μL/min to give an RU of 40-100. The surface was then allowed to stabilise. Single cycle kinetic data was obtained at a flow rate of 45 μL/min. […] The association phase for the three injections of increasing concentrations of TNF was monitored for 240 seconds and a single dissociation phase was measured for 2700 seconds following the last injection of TNF. Regeneration of the Protein A surface was conducted using 10 mM glycine-HCl pH 1.5. The signal from the reference channel Fc1 (no receptor) was subtracted from that of Fc2, Fc3 and Fc4 to correct for differences in non-specific binding to a reference surface.

[2] = target: T2, Fc tagged human TNFR2 (Sino Biological) (human, UniProt P20333 23-257); test: as above
T2 construct: Bought reagent; also called hTNFR2; hTNFR2-Fc; not shown: Fc tag of the bought protein
T2 sequence (looked up): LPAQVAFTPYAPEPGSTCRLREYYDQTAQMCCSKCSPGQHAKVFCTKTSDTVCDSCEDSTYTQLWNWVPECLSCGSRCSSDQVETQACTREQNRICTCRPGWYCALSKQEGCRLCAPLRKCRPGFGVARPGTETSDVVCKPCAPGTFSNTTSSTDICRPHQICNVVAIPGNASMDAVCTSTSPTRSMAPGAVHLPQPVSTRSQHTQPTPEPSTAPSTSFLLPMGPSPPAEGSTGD
Protocol: as §1, §2

[3] = target: T3, Fc tagged mouse TNFR1 (Sino Biological) (mouse, UniProt P25118 22-212, limits assumed); test: as above
T3 construct: Bought reagent; also called mTNFR1; mTNFR1-Fc; not shown: Fc tag of the bought protein
T3 sequence (looked up): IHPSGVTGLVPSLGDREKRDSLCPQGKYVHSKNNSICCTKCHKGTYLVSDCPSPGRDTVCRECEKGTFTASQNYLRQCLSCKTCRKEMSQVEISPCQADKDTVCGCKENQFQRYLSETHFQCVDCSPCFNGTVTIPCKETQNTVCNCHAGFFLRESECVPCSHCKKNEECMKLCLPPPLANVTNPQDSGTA
Protocol: as §1, §2

[4] = target: T1, Fc tagged human TNFR1 (Sino Biological); test: SPR, Biacore T200 multi cycle kinetics, receptor-Fc captured on Protein A chip, TNF 1.25-40 nM, 1:1 model
Protocol: (§3) Multi cycle kinetics analysis of binding to hTNFR1, hTNFR2, mTNFR1 and mTNFR2 was performed on the 10 lead variants using a Biacore T200 (serial no. 1909913) instrument running Biacore T200 Evaluation Software V3.0.1 (Uppsala, Sweden) to characterise further the binding to these receptors.
(§4) As with the single cycle kinetics, receptor binding was assessed in two separate experiments. In the first set of experiments binding to hTNFR1 (Fc2), hTNFR2 (Fc3) and mTNFR1 (Fc4) was assessed. In the second set of experiments the extent of mTNF2 (Fc4) binding was assessed using hTNFR1 (Fc2) and hTNFR2 (Fc3) as controls. All receptors were diluted in running buffer to a concentration of ˜4 μg/mL and at the start of each cycle loaded onto Fc2, Fc3 and Fc4 of a Protein A CM5 chip and captured at a flow rate of 10 μL/min to give an RU of ˜40-100. The surface was then allowed to stabilise. All kinetic data was obtained using a flow rate of 75 μl/min to minimise any potential mass transfer effects. […] The association phase of TNF was monitored for 280 seconds and the dissociation phase was measured for 2100 seconds. […] Regeneration of the Protein A surface was conducted using two injections of 10 mM glycine-HCL pH 1.5 at the end of each cycle. The signal from the reference channel Fc1 was subtracted from that of Fc2, Fc3 and Fc4 to correct for differences in non-specific binding to a reference surface, and a global Rmax parameter was used in the 1-to-1 binding model.

[5] = target: T2, Fc tagged human TNFR2 (Sino Biological); test: as above
Protocol: as §3, §4

[6] = target: T3, Fc tagged mouse TNFR1 (Sino Biological); test: as above
Protocol: as §3, §4

Kd [1]: 0.0164 nM
Kd [2]: 0.315 nM
Kd [3]: 0.0256 nM
Kd [4]: 0.0216 nM
Kd [5]: 0.407 nM
Kd [6]: 0.177 nM
B1: TNF mutein B2 (ligand)
chain: VRSSSRTPSDKPVAHVVANPQAEGQLQWLNRRANALLANGVELRDNQLVVPSEGLYLIYSQVLFKGQGCPSTHVLLTHTISRITASYSGKVNLLSAIKSPCQRETPEGAEAKPWYEPIYLGGVFQLEKGDRLSAEINRPDYLDFAESGQVYFGIIAL
notes: Human TNF mutein, TASYSG at positions 84-89; not shown: C-terminal FLAG tag and His6 tag from vector pANT65
